Kd, koff and kon data for one substance are collected here from PMC12210968.

This assay concerns the target Human plasminogen (PLG) protein (human) (UniProt P00747). Kind of assay: SPR; BIAcore system; PLG and EV-A71 6356 viral particles; the methods tell one set-up (PLG coated, virus diluted) for EnSpire or BIAcore.

Regarding “Enterovirus A71 (EV-A71) viral particles, strain 6356 (human strain, C2 genotype) (complex)”, the Kd was 1.96 nM, the koff amounted to 5.63e-05 s⁻¹ and the kon came to 28800 M⁻¹ s⁻¹.

The Kd is the equilibrium constant for the complex coming apart. What is called koff is the first-order rate constant of dissociation. A low value points to a long-lived complex. As a reminder, the kon is the second-order rate constant of association. The low end stands for slow association, the high end for fast association.
